Reference: patent US5990275

Experiments:
[1] = molecular target: TAG-72 antigen on a human breast carcinoma extract (human); assay: competition RIA against 125I-labeled CC49 IgG, human breast carcinoma extract

Row | Substance | fold lower affinity than the CC49/212 sFv [1] | half-life (t1/2) of intact sFv, reverse phase HPLC (CC49/212 single-chain Fv)
1 | CC49/218 single-chain Fv (scFv) | 4 fold | 
2 | subtilisin BPN' (Type XXVII protease, Sigma) (from UniProt P00782) (enzyme) |  | 2.05 h
3 | trypsin (enzyme) |  | 3.26 h
